This is an account of results in PMC8217500.

The target in assay [1] is Fc-tagged SARS-CoV-2 RBD (SARS-CoV-2) (UniProt P0DTC2). As to the kind of experiment: BLI; Octet Red96e, room temperature; Fc-tagged RBD (20 μg/ml) loaded on anti-hIgG Fc Capture (AHC) biosensors, Fab in solution; 1× kinetics buffer (1× PBS pH 7.4, 0.01% BSA, 0.002% Tween 20); 60 s association, 60 s dissociation; 1:1 binding model. In general terms: BLI is a label-free optical method that tracks binding on a fibre tip over time.

Assay [2] deals with Fc-tagged SARS-CoV-2 receptor-binding domain (RBD), wild type (SARS-CoV-2) (UniProt P0DTC2). As to the kind of experiment: BLI; Fc-tagged RBD (20 ug/ml) loaded on anti-hIgG Fc Capture (AHC) biosensors, Fab in solution at four to five concentrations; Octet Red96e, room temperature, 1x kinetics buffer (1x PBS pH 7.4, 0.01% w/v BSA, 0.002% v/v Tween 20); 1:1 binding model.
In assay [3] the target is Fc-tagged SARS-CoV-2 spike receptor-binding domain (RBD) (SARS-CoV-2) (UniProt P0DTC2). As to the kind of experiment: BLI; Fc-tagged RBD (20 ug/ml) loaded on anti-hIgG Fc Capture (AHC) biosensors, Fab in solution; room temperature; 1x PBS pH 7.4, 0.01% BSA, 0.002% Tween 20; 1:1 binding model.

What is called Kd is the concentration at which binding is half-saturated. Higher therefore signals weaker binding. In the case of “COV107-23 paired with the light chain of COVD21-C8 (Fab)”, in assay [1], the Kd was > 1000 nM.

Regarding CC12.3 Fab, wild type, the Kd in assay [2] amounted to 14 nM.

“COV107-23 Fab, Y58 variant (heavy chain F58Y)” showed a Kd in assay [3] of 362 nM. In other words, the sub-micromolar range.

With CC12.3 Fab, F58 (wild type), the Kd in assay [3] is 14 nM. This Kd lies about 26-fold lower than the previous one.

With “COVD21-C8 heavy chain paired with the light chain of COV107-23 (Fab)”, the Kd in assay [1] is > 1000 nM.
